# Test results published in publication PMC12236388, “Investigating the co-assembly of amphipathic peptides” (Faraday Discussions, 2025).
# T1: K(FEFK)2K
# T1 construct: designed amphipathic self-assembling peptide, L-amino acids; printed in short form K(FEFK)2K and written out here; forms beta-sheet-rich fibres and a hydrogel at pH 7; also called base peptide; peptide 1; source: synthetic peptide; bought: LifeTein Inc. (HCl salt, nominal purity 95%)
# T1 peptide: KFEFKFEFKK
# Biological target: T1, K(FEFK)2K
# Test: FRET or BRET; FITC/Dabcyl quenching in mixed hydrogels: base peptide 3.75 mg mL^-1 plus secondary peptide, total 7.5 mg mL^-1 (mass ratio 1:1), pH 7, water; powders mixed before dissolving, pH raised stepwise with NaOH; quenching percentage compared with base hydrogels at 3.75 and 7.5 mg mL^-1
fluorescence quenching percentage [%],binding result (both partners purified),Molecule
30,,K(FEFK)2K (peptide)
,binds,"FEFKFEFKK (designed amphipathic peptide; printed in short form (FEFK)2K and written out here; source: synthetic peptide; bought: LifeTein Inc. (HCl salt, nominal purity 95%)) [(FEFK)2K]"
